Square brackets hold non-standard residues; d marks the D form. Nle = CCCC[C@H](N)C(=O)O
The binders below were run against T1, Human eIF4E (aa 28-217) with a C-terminal His tag (human, UniProt P06730 28-217) (assay: TR-FRET competition vs biotin-4G2 peptide on HH-eIF4E).
T1 construct: also called HH-eIF4E; eukaryotic initiation factor 4E
T1 sequence (P06730 other isoform, or with tags, fused parts or gaps limits assumed): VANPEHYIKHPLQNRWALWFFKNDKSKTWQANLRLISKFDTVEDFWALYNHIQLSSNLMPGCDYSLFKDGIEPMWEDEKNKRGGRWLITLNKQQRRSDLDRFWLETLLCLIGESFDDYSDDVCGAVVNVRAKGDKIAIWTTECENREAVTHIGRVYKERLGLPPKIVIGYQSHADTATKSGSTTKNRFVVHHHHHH
Procedure: Test peptides (1.6 mM stock in DMSO) were diluted 3 fold in series in DMSO and solutions were diluted 4 fold in Assay Buffer (50 mM NaPi, pH 6.5, 50 mM KCl, 1 mM DTT, 0.004% NP40 and 0.5 mg/ml gammaglobulin). […] The samples were incubated at room temperature for 20 minutes.
IC50 values were calculated using Condoseo software (Genedata AG, Basel, Switzerland).

Row | Binder | IC50 [nM]
1 | Ac-KRYDREFLLAFQF[Nle]VYDLGLRRLRQRRRLRRERVRA-NH2 (SMILES CCCC[C@H](NC(=O)[C@H](Cc1ccccc1)NC(=O)[C@H](CCC(N)=O)NC(=O)[C@H](Cc1ccccc1)NC(=O)[C@H](C)NC(=O)[C@H](CC(C)C)NC(=O)[C@H](CC(C)C)NC(=O)[C@H](Cc1ccccc1)NC(=O)[C@H](CCC(=O)O)NC(=O)[C@H](CCCNC(=N)N)NC(=O)[C@H](CC(=O)O)NC(=O)[C@H](Cc1ccc(O)cc1)NC(=O)[C@H](CCCNC(=N)N)NC(=O)[C@H](CCCCN)NC(C)=O)C(=O)N[C@H](C(=O)N[C@@H](Cc1ccc(O)cc1)C(=O)N[C@@H](CC(=O)O)C(=O)N[C@@H](CC(C)C)C(=O)NCC(=O)N[C@@H](CC(C)C)C(=O)N[C@@H](CCCNC(=N)N)C(=O)N[C@@H](CCCNC(=N)N)C(=O)N[C@@H](CC(C)C)C(=O)N[C@@H](CCCNC(=N)N)C(=O)N[C@@H](CCC(N)=O)C(=O)N[C@@H](CCCNC(=N)N)C(=O)N[C@@H](CCCNC(=N)N)C(=O)N[C@@H](CCCNC(=N)N)C(=O)N[C@@H](CC(C)C)C(=O)N[C@@H](CCCNC(=N)N)C(=O)N[C@@H](CCCNC(=N)N)C(=O)N[C@@H](CCC(=O)O)C(=O)N[C@@H](CCCNC(=N)N)C(=O)N[C@H](C(=O)N[C@@H](CCCNC(=N)N)C(=O)N[C@@H](C)C(N)=O)C(C)C)C(C)C) [peptide of SEQ ID NO: 23] | 180
2 | Ac-GAAEAAAYVYDLLLRFLRQRRRLRRERVRA-NH2 [peptide of SEQ ID NO: 25] | 11000
3 | Ac-GAAEAAARVYDLGLRRLRQRRYLRRELLRF-NH2 [peptide of SEQ ID NO: 26] | 250
4 | Ac-ARVYDLGLRRLRQRRRLRRERVRAKRYDREFLLAFQF[Nle]-NH2 (SMILES CCCC[C@H](NC(=O)[C@H](Cc1ccccc1)NC(=O)[C@H](CCC(N)=O)NC(=O)[C@H](Cc1ccccc1)NC(=O)[C@H](C)NC(=O)[C@H](CC(C)C)NC(=O)[C@H](CC(C)C)NC(=O)[C@H](Cc1ccccc1)NC(=O)[C@H](CCC(=O)O)NC(=O)[C@H](CCCNC(=N)N)NC(=O)[C@H](CC(=O)O)NC(=O)[C@H](Cc1ccc(O)cc1)NC(=O)[C@H](CCCNC(=N)N)NC(=O)[C@H](CCCCN)NC(=O)[C@H](C)NC(=O)[C@H](CCCNC(=N)N)NC(=O)[C@@H](NC(=O)[C@H](CCCNC(=N)N)NC(=O)[C@H](CCC(=O)O)NC(=O)[C@H](CCCNC(=N)N)NC(=O)[C@H](CCCNC(=N)N)NC(=O)[C@H](CC(C)C)NC(=O)[C@H](CCCNC(=N)N)NC(=O)[C@H](CCCNC(=N)N)NC(=O)[C@H](CCCNC(=N)N)NC(=O)[C@H](CCC(N)=O)NC(=O)[C@H](CCCNC(=N)N)NC(=O)[C@H](CC(C)C)NC(=O)[C@H](CCCNC(=N)N)NC(=O)[C@H](CCCNC(=N)N)NC(=O)[C@H](CC(C)C)NC(=O)CNC(=O)[C@H](CC(C)C)NC(=O)[C@H](CC(=O)O)NC(=O)[C@H](Cc1ccc(O)cc1)NC(=O)[C@@H](NC(=O)[C@H](CCCNC(=N)N)NC(=O)[C@H](C)NC(C)=O)C(C)C)C(C)C)C(N)=O) [peptide of SEQ ID NO: 24] | 19

Reference: patent publication US20150166621A1 (Hoffmann-La Roche, published 2015)
